# Assay results: US8247194 (Amgen, dated 2012)
# Changes are numbered by the printed parent chain.
# B1: half-human SCA B32oN-33 (scFv)
# scFv: ELQLVEQSGAALVKPGDSVKMSCKASGYPFTDYIVHWVKQSHGKSLDWIGYINPYSGDTKFNEKFKSKATLTVDKSSSTAYMEFSRLTSEDSAIYYCARSGLIAVYFDYWGQGTTVTVSSGGGGSGGGGSGGGGSELVMTQSPATLSLSPGERATLSCRASQSVRTYLAWYQQKPGQAPRLLIYAASHRATGIPARFSGSGSGTDFTLTISRLEPEDFAVYYCQQYGSSPPTFGQGTKVEIKTGDYKDDDDKHHHHHH
# notes: Expressed from pComb3H5BFlag/His
# B2: half-human SCA B33oN-22 (scFv)
# scFv: ELQLVEQSGAALVKPGDSVKMSCKASGYPFTDYIVHWVKQSHGKSLDWIGYINPYSGDTKFNEKFKSKATLTVDKSSSTAYMEFSRLTSEDSAIYYCARSGLIAVYFDYWGQGTTVTVSSGGGGSGGGGSGGGGSELVLTQSPDFQSVTPKEKVTITCRASQSIGSSLHWYQQKPDQSPKLLIKFASQSFSGVPSRFSGSGSGTDFTLTINSLEAEDAATYYCQQSYSTPPTFGQGTKVEIKTGDYKDDDDKHHHHHH
# notes: as for B1
# B3: half-human SCA B32oN-67 (scFv)
# scFv: B2 scFv with D144G, F190I, S198T, N211S, E214Q, A215P, A218I, P231W, V239L
# notes: as for B1
# B4: half-human SCA C32oN-21 (scFv)
# scFv: B2 scFv with D144G, F190I, S200T, Y227S, S228T, T229L, V239L
# notes: as for B1
# B5: half-human SCA C32oN-34 (scFv)
# scFv: B2 scFv with K153R, S163T, S166N, S167N, D176G, P231W
# notes: as for B1
# B6: half-human SCA C32oN-46 (scFv)
# scFv: B2 scFv with F190L, N211S, E214Q, A215P, A218F
# notes: as for B1
# B7: half-human SCA B32oN-49 (scFv)
# scFv: B2 scFv with F190L, N211S, E214Q, A215P, A218F, S228T, Q235G
# notes: as for B1
# B8: half-human SCA B33oN-21 (scFv)
# scFv: B2 scFv with F190L, P231W, V239L
# notes: as for B1
# B9: half-human SCA B33oN-115 (scFv)
# scFv: B2 scFv with F190L, N211S, E214Q, A215P, A218F, P231S, Q235P
# notes: as for B1
# B10: half-human SCA B33oN-8 (scFv)
# scFv: ELQLVEQSGAALVKPGDSVKMSCKASGYPFTDYIVHWVKQSHGKSLDWIGYINPYSGDTKFNEKFKSKATLTVDKSSSTAYMEFSRLTSEDSAIYYCARSGLIAVYFDYWGQGTTVTVSSGGGGSGGGGSGGGGSELVLTQSPGFQSVTPKEKVTITCRASQSIGSSLNWYQQKPDQPPKLLIKFASQSISGVSSRFSGTGSGTDFTLTISSLQPEDVATYYCQQSYSTPPTFGQGTKLEIKTGDYKDDDDKHHHHHH
# notes: as for B1
# B11: half-human SCA C32oN-92 (scFv)
# scFv: B2 scFv with F190L, T207A, Y227S, S228T, T229L, V239L
# notes: as for B1
# B12: half-human SCA B33oN-69 (scFv)
# scFv: B2 scFv with S166T, S167G, S212G, Y227S, S228T, T229L, V239L
# notes: as for B1
# B13: half-human SCA B32oN-44 (scFv)
# scFv: B2 scFv with S178P, F190I, G192R, S200T, Y227F, T229F, P231Y, V239L
# notes: as for B1
# B14: half-human SCA B33oN-66 (scFv)
# scFv: B2 scFv with S167N, T207S, K238R, V239L
# notes: as for B1
# B15: half-human SCA C32oN-10 (scFv)
# scFv: B2 scFv with F190L, A218F, P231S, Q235P
# notes: as for B1
# B16: half-human SCA B32oN-73 (scFv)
# scFv: B10 scFv with N169H, P178S, S194P, V218I, P231W
# notes: as for B1
# B17: half-human SCA C33oN-49 (scFv)
# scFv: B2 scFv with P231W, V239L
# notes: as for B1
# B18: half-human SCA B32oN-48 (scFv)
# scFv: B2 scFv with D144G, S178P, F190I, D205N, Y227S, S228T, T229L
# notes: as for B1
# B19: half-human SCA B32oN-10 (scFv)
# scFv: ELQLVEQSGAALVKPGDSVKMSCKASGYPFTDYIVHWVKQSHGKSLDWIGYINPYSGDTKFNEKFKSKATLTVDKSSSTAYMEFSRLTSEDSAIYYCARSGLIAVYFDYWGQGTTVTVSSGGGGSGGGGSGGGGSELQMTQSPSSLSASVGDRVTITCRTSQTISSLLNWYQQKPGKAPKLLIYAASNLQSGVPSRFSGSGSGTDFTLTISGLQPEDFSTYFCQQSYSFPRTFGQGTKVDIKTGDYKDDDDKHHHHHH
# notes: as for B1
# B20: half-human SCA B33oN-35 (scFv)
# scFv: ELQLVEQSGAALVKPGDSVKMSCKASGYPFTDYIVHWVKQSHGKSLDWIGYINPYSGDTKFNEKFKSKATLTVDKSSSTAYMEFSRLTSEDSAIYYCARSGLIAVYFDYWGQGTTVTVSSGGGGSGGGGSGGGGSELQMTQSPSSLSASVGDRVTITCRASQSIGSSLHWYQQKPDQSPKLLIKFASQSFSGVPSRFGGSGSGTNFTLTINSLEAEDAATYYCQQSSTLPPTFGQGTKLEIKTGDYKDDDDKHHHHHH
# notes: as for B1
# B21: half-human SCA C32oN-89 (scFv)
# scFv: ELQLVEQSGAALVKPGDSVKMSCKASGYPFTDYIVHWVKQSHGKSLDWIGYINPYSGDTKFNEKFKSKATLTVDKSSSTAYMEFSRLTSEDSAIYYCARSGLIAVYFDYWGQGTTVTVSSGGGGSGGGGSGGGGSELVLTQSPSSLSASVGDRVTITCRASQSISRYLNWYQQKPGKPPKLLIFVASNLQTGVPSRFSGSGSGTDFTLTISSLEPEDFAVYYCQQRSNWPLTFGGGTKVDIKTGDYKDDDDKHHHHHH
# notes: as for B1
# B22: half-human SCA C33oN-32 (scFv)
# scFv: B2 scFv with D144E, T149A, S198G, D205N, Y227S, S228T, T229L, V239L
# Target: T1, recombinant human GM-CSF (rhGM-CSF), produced in E. coli (human, UniProt P04141 18-144)
# T1 construct: The ELISA of 2.5.2 and the TF-1 proliferation assays say only rhGM-CSF without naming the preparation; they are assigned to this molecule; also called human GM-CSF antigen; recombinant human granulocyte macrophage colony stimulating factor
# T1 sequence (P04141 18-144 limits assumed): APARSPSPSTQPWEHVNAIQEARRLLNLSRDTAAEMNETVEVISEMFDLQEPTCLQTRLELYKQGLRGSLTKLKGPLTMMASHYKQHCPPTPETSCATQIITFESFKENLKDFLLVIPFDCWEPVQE
# Assay: SPR off-rate ranking, purified periplasmic preparation over immobilized rhGM-CSF; clone listed among the sequenced hits in the 2nd table
# Method: FIG. 9: Binding analysis (kinetic off rate) of SCA hits derived from the method of the invention, as determined by SPR. Binding kinetics of the SCA hits were measured injecting 10 µL of purified periplasmic preparation ("PPP") protein solution with a flow rate of 5 µL/min at 25° C. onto the sensor chip. The data were monitored in all four flow cells. Background association with the unmodified CM5 chip surface (FC1) was substracted from the binding to the immobilised rhGM-CSF (FC2) allowing analysis of the specific binding signal (FC2-FC1 response difference). The dissociation rate was monitored for 100 sec (FIG. 4). The amplitude of the binding peak (RUmax) directly correlates to the protein concentration in the injected sample. The kinetic association rate constant (ka) is concentration dependent and can—due to varying concentrations of the PPP protein solution—not be used for the qualitative ranking of the purified PPP SCA material. The kinetic dissociation rate constant (kd) is protein concentration independent and characteristic for the binding strength of the respective SCA hit. The SCA hits with the best apparent off rate were identified.
row,Binder,binding result
1,B1,binds
2,B2,binds
3,B3,binds
4,B4,binds
5,B5,binds
6,B6,binds
7,B7,binds
8,B8,binds
9,B9,binds
10,B10,binds
11,B11,binds
12,B12,binds
13,B13,binds
14,B14,binds
15,B15,binds
16,B16,binds
17,B17,binds
18,B18,binds
19,B19,binds
20,B20,binds
21,B21,binds

# Target: T1, recombinant human GM-CSF (rhGM-CSF), …
# Assay: cell-based or functional assay
Binder,"IC50 (read off the curve), TF-1 proliferation, C33ON-32 dimer [µg/mL]","IC50 (read off the curve), TF-1 proliferation, C33ON-32 mono [µg/mL]"
B22,~0.1,~0.2
